The values that follow come from paper PMC2674315 (Biochemistry, 2008).

B1: Sam domain of the EphA2 receptor (domain or fragment, human, UniProt P29317 901-976, looked up)
chain: SEGVPFRTVSEWLESIKMQQYTEHFMAAGYTAIEKVVQMTNDDIKRIGVRLPGHQKRIAYSLLGLKDQVNTVGIPI
B2: Sam domain of Ship2 (Src homology 2 domain-containing phosphoinositide-5-phosphatase 2) (domain or fragment, human, UniProt O15357 1194-1258, looked up)
chain: SGLGEAGMSAWLRAIGLERYEEGLVHNGWDDLEFLSDITEEDLEEAGVQDPAHKRLLLDTLQLSK

The target of assay [1] is Sam domain of Ship2 (Src homology 2 domain-containing phosphoinositide-5-phosphatase 2) (human) (UniProt O15357). Put plainly: AUC.
Assay [2] deals with Arap3-Sam Sam (Homo sapiens) (UniProt Q8WWN8). Description: ITC. Particulars: cited from earlier work.
Assay [3] addresses B2. Put plainly: ITC.
In assay [4] the target is B1. Description: ITC.
For assay [5], the target named is T1, EphA2-Sam double mutant (H924N, R950A) (human, UniProt P29317 901-976, H924N | R950A).
T1 sequence (looked up): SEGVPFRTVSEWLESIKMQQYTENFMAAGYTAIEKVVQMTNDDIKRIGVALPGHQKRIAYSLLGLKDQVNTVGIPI
Put plainly: ITC.

The target in assay [6] is T2, Sam domain of the EphA2 receptor, polyHis-tag cut with thrombin (human, UniProt P29317 901-976).
T2 sequence (looked up): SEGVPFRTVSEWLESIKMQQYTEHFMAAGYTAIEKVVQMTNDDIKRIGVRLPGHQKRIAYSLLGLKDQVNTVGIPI
Description: ITC.

Chain of Arap3-Sam Sam (Homo sapiens) (Q8WWN8 1-71): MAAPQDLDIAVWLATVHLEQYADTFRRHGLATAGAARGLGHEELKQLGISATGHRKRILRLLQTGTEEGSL

Consider “Sam domain of Ship2 (Src homology 2 domain-containing phosphoinositide-5-phosphatase 2) (from UniProt O15357 1194-1258) (domain or fragment)”, for which, in assay [1], the Kd is 2000 µM.

With Ship2-Sam Sam (from UniProt O15357), in assay [2], the Kd is 0.1 µM.

Turning to B1, the “stoichiometry N” value in assay [3] is 1.

Consider B2, for which the Kd in assay [4] amounted to 0.75 ± 0.12 µM; in assay [5] it was 1.8 ± 0.6 µM.

B3: Shiptide (minimal peptide region of Ship2-Sam) (peptide)
peptide: Ac-EGLVHNGWDDLEFLSDITEEDL-NH2
As to B3, binding in assay [6] was characterised by a dissociation constant (Kd) of 19 ± 3 µM.

One may read the Kd as the free concentration of one partner at which half of the binding sites on the other are occupied at equilibrium, for simple one-to-one binding. As usually defined, the stoichiometry N is a count of units in the complex or per binding partner.
